Results published in FireProtDB (doi:10.1093/protein/11.3.213).
Several values for one entry are separate records, joined by “and”; a condition that tells them apart may be missing. Identical values can stand only once.

B1: Endolysin, P03706 (parent)
chain: MVEINNQRKAFLDMLAWSEGTDNGRQKTRNHGYDVIVGGELFTDYSDHPRKLVTLNPKLKSTGAGRYQLLSRWWDAYRKQLGLKDFSPKSQDAVALQQIKERGALPMIDRGDIRQAIDRCSNIWASLPGAGYGQFEHKADSLIAKFKEAGGTVREIDV

Variants of: B1
Conditions: Escherichia phage lambda; pH 4; Thermal; Fluorescence; phosphate 0.1 M; reversible: yes; structure 1AM7; whole UniProt chain shown

Variant | Tm | unfolding enthalpy (calorimetric) | unfolding enthalpy (van 't Hoff)
H31N H137N | 24.5 °C and 26 °C | 40.3 kcal/mol and 43.3 kcal/mol | 29 kcal/mol and 35.4 kcal/mol

Same assay, conditions: Escherichia phage lambda; pH 4.5; Thermal; Fluorescence; phosphate 0.1 M; reversible: yes; structure 1AM7; whole UniProt chain shown

Variant | Tm [°C] | unfolding enthalpy (calorimetric) [kcal/mol] | unfolding enthalpy (van 't Hoff) [kcal/mol]
H31N H137N | 39.3 | 69.9 | 71

Same assay, conditions: Escherichia phage lambda; pH 5.5; Thermal; Fluorescence; phosphate 0.1 M; reversible: yes; structure 1AM7; whole UniProt chain shown

Variant | Tm [°C] | unfolding enthalpy (calorimetric) [kcal/mol] | unfolding enthalpy (van 't Hoff) [kcal/mol]
H31N H137N | 51.1 | 93.5 | 107

Same assay, conditions: Escherichia phage lambda; pH 6; Thermal; Fluorescence; phosphate 0.1 M; reversible: yes; structure 1AM7; whole UniProt chain shown

Variant | Tm [°C] | unfolding enthalpy (calorimetric) [kcal/mol] | unfolding enthalpy (van 't Hoff) [kcal/mol]
H31N H137N | 52.7 | 96.7 | 93

Same assay, conditions: Escherichia phage lambda; pH 6.5; Thermal; Fluorescence; phosphate 0.1 M; reversible: yes; structure 1AM7; whole UniProt chain shown

Variant | Tm [°C] | unfolding enthalpy (calorimetric) [kcal/mol] | unfolding enthalpy (van 't Hoff) [kcal/mol]
H31N H137N | 53.6 | 98.5 | 111

Same assay, conditions: Escherichia phage lambda; pH 6.57; Thermal; Fluorescence; phosphate 0.1 M; reversible: yes; structure 1AM7; whole UniProt chain shown

Variant | Tm [°C] | unfolding enthalpy (calorimetric) [kcal/mol] | unfolding enthalpy (van 't Hoff) [kcal/mol]
H31N H137N | 50.8 | 92.9 | 100

Same assay, conditions: Escherichia phage lambda; pH 7.07; Thermal; Fluorescence; phosphate 0.1 M; reversible: yes; structure 1AM7; whole UniProt chain shown

Variant | Tm [°C] | unfolding enthalpy (calorimetric) [kcal/mol] | unfolding enthalpy (van 't Hoff) [kcal/mol]
H31N H137N | 51.1 | 93.5 | 105

Same assay, conditions: Escherichia phage lambda; pH 7.57; Thermal; Fluorescence; phosphate 0.1 M; reversible: yes; structure 1AM7; whole UniProt chain shown

Variant | Tm [°C] | unfolding enthalpy (calorimetric) [kcal/mol] | unfolding enthalpy (van 't Hoff) [kcal/mol]
H31N H137N | 51 | 93.3 | 101

Same assay, conditions: Escherichia phage lambda; pH 8.07; Thermal; Fluorescence; phosphate 0.1 M; reversible: yes; structure 1AM7; whole UniProt chain shown

Variant | Tm [°C] | unfolding enthalpy (calorimetric) [kcal/mol] | unfolding enthalpy (van 't Hoff) [kcal/mol]
H31N H137N | 50.1 | 91.5 | 91
